Read-outs that look alike come from different tables or passages of the source.
Columns and labels:
[1] = target: His-tagged rhesus monkey CD40 (rhesus-CD40-his) recombinant protein (rhesus monkey) (UniProt F6SNI1); assay: ELISA, Rhesus CD40-his coated
[2] = target: His-tagged human CD40 (h-CD40-his) recombinant protein (human) (UniProt P25942); assay: ELISA, human CD40-his coated
[3] = target: His-tagged human CD40 (h-CD40-his) recombinant protein (human) (UniProt P25942); assay: ELISA, human CD40-his coated; remark: listed apart in the source
[4] = target: His-tagged human CD40 (h-CD40-his) recombinant protein (human) (UniProt P25942); assay: Biacore SPR, antibody captured by anti-human antibody, CD40 antigen as analyte, 1:1 model
[5] = target: human CD40 on HEK-Blue CD40L cells (HEK293 cells stably transfected with human CD40 gene) (human) (UniProt P25942); assay: HEK293-CD40 cell-binding (so in the source)
Sequence of human CD40 on HEK-Blue CD40L cells (HEK293 cells stably transfected with human CD40 gene) (human) (P25942 21-277): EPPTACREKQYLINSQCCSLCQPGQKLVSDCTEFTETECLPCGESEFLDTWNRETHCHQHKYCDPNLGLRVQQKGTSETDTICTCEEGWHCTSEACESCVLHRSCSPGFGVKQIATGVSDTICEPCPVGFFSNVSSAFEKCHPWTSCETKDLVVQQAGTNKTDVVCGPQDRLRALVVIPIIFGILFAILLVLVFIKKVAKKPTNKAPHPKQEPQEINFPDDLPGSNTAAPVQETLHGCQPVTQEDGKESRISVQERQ

[6] = target: human CD40 on HEK-Blue CD40L cells (HEK293 cells stably transfected with human CD40 gene) (human) (UniProt P25942); assay: HEK293-CD40 cell-binding (so in the source); remark: listed apart in the source
[7] = target: Fc-tagged human CD40 (h-CD40-Fc) recombinant protein (human) (UniProt P25942); assay: hCD40/hCD40L blocking ELISA, competitor CD40L-his
Sequence of Fc-tagged human CD40 (h-CD40-Fc) recombinant protein (human) (P25942 21-193 limits assumed): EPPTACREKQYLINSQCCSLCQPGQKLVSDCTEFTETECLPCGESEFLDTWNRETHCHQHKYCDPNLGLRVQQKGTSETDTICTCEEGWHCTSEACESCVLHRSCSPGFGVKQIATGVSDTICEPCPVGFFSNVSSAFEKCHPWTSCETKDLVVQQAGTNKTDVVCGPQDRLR

[8] = target: Fc-tagged human CD40 (h-CD40-Fc) recombinant protein (human) (UniProt P25942); assay: hCD40/hCD40L blocking ELISA, competitor CD40L-his; remark: listed apart in the source

Sequence of His-tagged human CD40 (h-CD40-his) recombinant protein (human) (P25942 21-193 limits assumed): as above
Sequence of Pfizer control (hIgG4) (antibody) (VH): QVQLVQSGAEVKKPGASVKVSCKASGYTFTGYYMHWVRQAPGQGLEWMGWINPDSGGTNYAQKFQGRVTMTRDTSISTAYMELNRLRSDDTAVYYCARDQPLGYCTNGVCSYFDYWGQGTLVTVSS
Sequence of Pfizer control (hIgG4) (antibody) (VL): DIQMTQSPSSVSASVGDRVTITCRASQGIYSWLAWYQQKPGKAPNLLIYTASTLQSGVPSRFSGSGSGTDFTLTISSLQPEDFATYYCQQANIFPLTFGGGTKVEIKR

Q: For Pfizer control (hIgG4) (antibody), which EC50 [1] is on record?
A: The EC50 was 3.56 ng/mL.

Q: What about the EC50 [2] of the same substance?
A: Its EC50 is 5.63 ng/mL.

Q: And the EC50 [3]?
A: Its EC50 is 3.98 ng/mL.

Q: What about the Kd [4] of the same substance?
A: Its Kd is 20.4 nM.

Q: Which EC50 [5] does the source give for Alligator control (hIgG1) (antibody) here?
A: The EC50 was 0.397 µg/mL.

Q: And the EC50 [1]?
A: The EC50 was 1.24 ng/mL.

Q: What about the EC50 [6] of the same substance?
A: The EC50 was 1.36 µg/mL.

Q: And the IC50 [7]?
A: The IC50 was 0.647 µg/mL.

Q: What about the EC50 [2] of the same substance?
A: Its EC50 is 3.29 ng/mL.

Q: And the EC50 [3]?
A: Its EC50 is 1.29 ng/mL.

Q: What about the Kd [4] of the same substance?
A: Its Kd is 166 nM.

Q: What about the IC50 [8] of the same substance?
A: Its IC50 is 0.723 µg/mL.
